Test results as given in article doi:10.1101/2024.07.12.603331 (bioRxiv, 2024).

Target: neonatal Fc receptor (FcRn), recombinant ectodomains (UniProt P55899;P61769)
Experiment: BLI

Chain of neonatal Fc receptor (FcRn), recombinant ectodomains (P55899 24-297, chain 1 of 2): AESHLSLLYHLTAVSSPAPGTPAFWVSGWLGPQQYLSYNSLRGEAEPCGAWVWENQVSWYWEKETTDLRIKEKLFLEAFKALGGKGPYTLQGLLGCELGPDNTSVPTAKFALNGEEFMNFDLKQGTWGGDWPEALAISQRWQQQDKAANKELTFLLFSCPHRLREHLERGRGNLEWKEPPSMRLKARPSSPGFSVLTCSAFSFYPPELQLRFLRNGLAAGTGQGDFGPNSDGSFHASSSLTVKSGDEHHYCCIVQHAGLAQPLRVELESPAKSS
Chain of neonatal Fc receptor (FcRn), recombinant ectodomains (P61769 21-119, chain 2 of 2): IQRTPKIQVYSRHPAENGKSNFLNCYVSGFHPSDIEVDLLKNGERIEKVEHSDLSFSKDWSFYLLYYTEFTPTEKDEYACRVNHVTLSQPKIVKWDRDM

B1: HAstV1 spike protein VP25 (residues S424 to R648) (domain or fragment)
chain: SIPAPGEEFKVVLTFGAPMSPNANNKQTWVNKPLDAPSGHYNVKIAKDVDHYLTMQGFTSIASVDWYTIDFQPSEAPAPIQGLQVLVNSSKKADVYAIKQFVTAQTNNKHQVTSLFLVKVTTGFQVNNYLSYFYRASATGDATTNLLVRGDTYTAGISFTQGGWYLLTNTSIVDGAMPPGWVWNNVELKTNTAYHMDKGLVHLIMPLPESTQMCYEMLTSIPRSR
modifications: biotin (EZ-link NHS-PEG4-Biotin)
For B1, the Kd was 578 nM.
